Measured values reported in paper PMC4232992.

Molecular target: Human myeloma IgG1 carbamylated with 0.1 M KCNO for 3 h, heat-aggregated (human)
Test: ELISA

Question: Which percent decrease in the deposition of C1q against native IgG1 does the source give for “C1q, the first component of the classical complement pathway (complex)” here?
Answer: 60%
